Experimental data published in the supplement of paper PMC11780869.

System: Bacillus subtilis
Assay: cleaved RNA product abundance (RNA/gDNA barcode ratio) relative to median wild-type variant (ratio to wild type); higher = more accumulation of the downstream cleavage product
Settings: cleavage site: cggR-gapA (positions -7 to +36 mutated)
Method: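 MPRA in B. subtilis. Mutagenized RNase Y cleavage-site regions (9% mutation rate) were inserted into a barcoded reporter mRNA (truncated aprE or tetM). Cells were grown in LB at 37°C to OD600 0.3. The cleaved RNA isoform was gel-purified and its barcodes counted; the RNA:gDNA barcode ratio was normalised to the median wild-type variant, and the median over barcodes is reported per variant. The printed sequence is the variable window only; the reporter flanks are not printed.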

[1] = experiment (reporter, strain, medium): exp 2b: truncated aprE reporter, strain BJT200
[2] = experiment (reporter, strain, medium): exp 4a: truncated aprE reporter, strain BJT201 with 2% xylose (RNase J1 expressed)

Row | Sequence | cleaved RNA product abundance [1] | cleaved RNA product abundance [2]
1 | ACAGACGAAGGAGCCGCAAAGAAGTCATTAAGGGATGAATAATCCGTCAATATAAATATCTCTCACTTATTTAAA | 0.124 | 0.173
2 | ACAGACGAAGGAGCCGCAAAGAAGTCATTAAGGGATGAATAATCCTTCAATATAAATATCTCTCACTTATTTAAA |  | 0.189
3 | ACAGACGAAGGAGCCGCAAAGAAGTCATTAAGGGATGAATAATCGCTCAATATAAATATCTCTCACTTATTTAAA |  | 0.107
4 | ACAGACGAAGGAGCCGCAAAGAAGTCATTAAGGGATGAATAATGCCTCAATATAAATATCTCTCACTTATTTAAA |  | 0.13
5 | ACAGACGAAGGAGCCGCAAAGAAGTCATTAAGGGATGATTAATCCCTCAATATAAATATCTCTCACTTATTTAAA |  | 0.217
6 | ACAGACGAAGGAGCCGCAAAGAAGTCATTAAGGGATGTATAATCCCTCAATATAAATATCTCTCACTTATTTAAA | 0.16 | 
7 | ACAGACGAAGGAGCCGCAAAGAAGTCATTAAGGGATTAATAATCCCTCAATATAAATATCTCTCACTTATTTAAA |  | 0.236
8 | ACAGACGAAGGAGCCGCAAAGAAGTCATTAAGGTATGAATAATCCCTCAATATAAATATCTCTCACTTATTTAAA | 0.0941 | 
9 | ACAGACGAAGGAGCCGCAAAGAAGTCATTAAGTGATGAATAATCCCTCAATATAAATATCTCTCACTTATTTAAA |  | 0.0976
10 | ACAGACGAAGGAGCCGCAAAGAAGTCATTAATGGATGAATAATCCCTCAATATAAATATCTCTCACTTATTTAAA | 0.0927 | 0.171
11 | ACAGACGAAGGAGCCGCAAAGAAGTCTTTAAGGGATGAATAATCCCTCAATATAAATATCTCTCACTTATTTAAA |  | 0.181
12 | ACAGACGAAGGAGCCGCAAAGAAGTGAATAAGGGATGAATAATCCCTCAATATAAATATCTCTCACTTATTTAAA |  | 0.296
13 | ACAGACGAAGGAGCCGCAAAGAAGTGACTAAGGGATGAATAATCCCTCAATATAAATATCTCTCACTTATTTAAA |  | 0.344
14 | ACAGACGAAGGAGCCGCAAAGAAGTGATAAAGGGATGAATAATCCCTCAATATAAATATCTCTCACTTATTTAAA |  | 0.223
15 | ACAGACGAAGGAGCCGCAAAGAAGTGATGAAGGGATGAATAATCCCTCAATATAAATATCTCTCACTTATTTAAA | 0.446 | 
16 | ACAGACGAAGGAGCCGCAAAGAAGTGATTAAAGGATGAATAATCCCTCAATATAAATATCTCTCACTTATTTAAA |  | 0.19
17 | ACAGACGAAGGAGCCGCAAAGAAGTGATTAACGGATGAATAATCCCTCAATATAAATATCTCTCACTTATTTAAA | 0.129 | 0.0991
18 | ACAGACGAAGGAGCCGCAAAGAAGTGATTAAGAGATGAATAATCCCTCAATATAAATATCTCTCACTTATTTAAA | 0.0989 | 0.133
19 | ACAGACGAAGGAGCCGCAAAGAAGTGATTAAGCGATGAATAATCCCTCAATATAAATATCTCTCACTTATTTAAA | 0.115 | 0.131
20 | ACAGACGAAGGAGCCGCAAAGAAGTGATTAAGGAATGAATAATCCCTCAATATAAATATCTCTCACTTATTTAAA |  | 0.115
21 | ACAGACGAAGGAGCCGCAAAGAAGTGATTAAGGCATGAATAATCCCTCAATATAAATATCTCTCACTTATTTAAA | 0.11 | 
22 | ACAGACGAAGGAGCCGCAAAGAAGTGATTAAGGGACGAATAATCCCTCAATATAAATATCTCTCACTTATTTAAA |  | 0.322
23 | ACAGACGAAGGAGCCGCAAAGAAGTGATTAAGGGATAAATAATCCCTCAATATAAATATCTCTCACTTATTTAAA |  | 0.246
24 | ACAGACGAAGGAGCCGCAAAGAAGTGATTAAGGGATGAAAAATCCCTCAATATAAATATCTCTCACTTATTTAAA |  | 0.399
25 | ACAGACGAAGGAGCCGCAAAGAAGTGATTAAGGGATGAATAACCCCTCAATATAAATATCTCTCACTTATTTAAA |  | 0.163
26 | ACAGACGAAGGAGCCGCAAAGAAGTGATTAAGGGATGAATAATACCTCAATATAAATATCTCTCACTTATTTAAA | 0.105 | 0.0889
